Common to all, as to assay: competition
For one test, the target named is T1, GLP-1 receptor (rat, UniProt P32301).
T1 chain: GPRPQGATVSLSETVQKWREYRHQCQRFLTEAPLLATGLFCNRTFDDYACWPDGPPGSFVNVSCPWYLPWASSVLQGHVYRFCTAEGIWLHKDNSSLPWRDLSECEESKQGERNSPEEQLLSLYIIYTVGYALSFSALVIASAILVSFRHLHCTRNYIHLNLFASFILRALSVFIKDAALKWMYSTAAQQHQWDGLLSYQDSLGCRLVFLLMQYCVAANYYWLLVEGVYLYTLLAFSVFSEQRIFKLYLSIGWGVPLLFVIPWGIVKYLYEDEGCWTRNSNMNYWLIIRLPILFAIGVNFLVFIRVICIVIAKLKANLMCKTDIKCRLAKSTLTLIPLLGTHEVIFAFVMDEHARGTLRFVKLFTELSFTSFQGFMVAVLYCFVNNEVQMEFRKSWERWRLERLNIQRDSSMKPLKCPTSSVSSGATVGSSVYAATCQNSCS

The target in the next test is T2, Glucagon receptor (rat, UniProt P30082).
T2 chain: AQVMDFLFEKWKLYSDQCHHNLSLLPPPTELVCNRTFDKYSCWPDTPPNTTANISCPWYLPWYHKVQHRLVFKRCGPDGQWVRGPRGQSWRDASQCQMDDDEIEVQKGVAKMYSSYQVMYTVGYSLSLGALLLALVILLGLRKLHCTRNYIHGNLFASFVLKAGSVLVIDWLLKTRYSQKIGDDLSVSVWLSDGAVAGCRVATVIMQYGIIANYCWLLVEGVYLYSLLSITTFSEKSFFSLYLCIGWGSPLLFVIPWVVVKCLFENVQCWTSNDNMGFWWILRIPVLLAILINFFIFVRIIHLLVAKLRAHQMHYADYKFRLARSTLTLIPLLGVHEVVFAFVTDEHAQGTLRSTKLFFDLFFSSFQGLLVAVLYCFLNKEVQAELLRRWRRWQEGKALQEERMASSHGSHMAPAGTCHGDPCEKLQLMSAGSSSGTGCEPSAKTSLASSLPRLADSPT

Test [1] addresses T3, Glucagon receptor (rat), P30082.
T3 chain: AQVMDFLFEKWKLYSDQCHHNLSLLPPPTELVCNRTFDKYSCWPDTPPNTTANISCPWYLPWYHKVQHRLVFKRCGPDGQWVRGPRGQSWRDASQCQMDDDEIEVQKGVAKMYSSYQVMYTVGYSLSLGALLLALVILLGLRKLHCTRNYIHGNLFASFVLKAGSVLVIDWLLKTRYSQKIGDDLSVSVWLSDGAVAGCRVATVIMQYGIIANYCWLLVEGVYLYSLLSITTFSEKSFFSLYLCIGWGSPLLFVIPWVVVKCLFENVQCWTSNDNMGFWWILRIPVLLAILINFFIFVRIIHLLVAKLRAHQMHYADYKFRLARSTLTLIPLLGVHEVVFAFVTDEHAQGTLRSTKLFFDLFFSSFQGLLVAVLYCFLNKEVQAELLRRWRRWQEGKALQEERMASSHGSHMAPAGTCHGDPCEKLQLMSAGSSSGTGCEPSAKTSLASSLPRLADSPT
The settings on record: modification not given.

In test [2] the target is T4, GLP-1 receptor (rat), P32301.
T4 chain: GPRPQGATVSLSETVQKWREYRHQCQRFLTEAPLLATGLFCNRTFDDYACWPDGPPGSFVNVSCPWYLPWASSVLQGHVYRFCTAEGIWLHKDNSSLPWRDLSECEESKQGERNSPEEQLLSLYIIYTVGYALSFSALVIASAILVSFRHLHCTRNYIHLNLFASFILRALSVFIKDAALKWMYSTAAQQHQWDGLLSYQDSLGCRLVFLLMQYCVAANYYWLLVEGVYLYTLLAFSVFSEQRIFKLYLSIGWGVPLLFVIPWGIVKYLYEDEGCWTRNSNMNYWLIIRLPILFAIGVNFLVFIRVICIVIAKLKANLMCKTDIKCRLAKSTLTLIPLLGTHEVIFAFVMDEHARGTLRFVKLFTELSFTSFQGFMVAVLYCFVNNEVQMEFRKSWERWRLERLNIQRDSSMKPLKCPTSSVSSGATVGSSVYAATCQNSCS
The settings on record: modification not given.

Results on 29 molecules are retold here after US7399745 (dated 2008).

A word on the IC50: it is the concentration that gives 50% inhibition. High values mean weaker potency in that assay, low ones greater potency in that assay.

Where no end group is shown, it is not given here.

B1: G2185 (peptide)
chain: HSQGTFTSDYARYLDARRAREFIKWLVRGRC(PEG 22 kD)
For B1, the IC50 with GLP-1 receptor was determined as 56.1 nM; in the test with Glucagon receptor, 347 nM.

B2: G59 (peptide)
chain: HSQGTFTSDYARYLDAKKAKEFIAWLVKGRG
As to B2, the values for the half-inhibitory concentration (IC50) in test [1] and in test [2] were 97.5 nM and 2.1 nM, respectively.

B3: G61 (peptide)
chain: HSQGTFTSDYARYLDAAKAKEFIAWLVKGRG
As for B3, the values for the IC50 in test [1] and in test [2] were 232 nM and 10.6 nM, respectively.

B4: G5 (peptide)
chain: HSQGTFTSDYSKYLEGQAAKEFIAWLVKGR
Take B4: the IC50 was found to be 243 nM in test [1] and 0.5 nM in test [2].

B5: G90 (peptide)
chain: HSQGTFTSDYARYLDARRAREFIKWLVRGRG
As to B5, the values for the IC50 in test [1] and in test [2] were 726 nM and 25.4 nM, respectively.

B6: G83 (peptide)
chain: HSQGTFTSDYARYLDARRAREFIKWLVRGRG
B6: the IC50 in test [1] worked out at 28.6 nM; in test [2], 3.2 nM.

B7: G183 (peptide)
chain: HSQGTFTSDYARYLDARRAKEFIKWLVRGRG
For B7, the IC50 in test [1] stood at 663 nM; in test [2], 159 nM.

B8: G185 (peptide)
chain: HSQGTFTSDYARYLDARRAREFIKWLVRGRC
Regarding B8, the IC50 is 48 nM in test [1] and 4.5 nM in test [2].

B9: G27 (peptide)
chain: HSQGTFTSDYAKYLDARRAKEFIAWLVKGR
In the case of B9, the IC50 in test [1] was 69.3 nM; in test [2], 2.2 nM.

B10: G87 (peptide)
chain: HSQGTFTSDYAKYLDARRAKEFIAWLVKGR
Consider B10, for which the values for the IC50 in test [1] and in test [2] were 620 nM and 98.6 nM, respectively.

B11: G4185 (peptide)
chain: HSQGTFTSDYARYLDARRAREFIKWLVRGRC(PEG 43 kD)
With B11, the figures for the IC50 with GLP-1 receptor and with Glucagon receptor were 248 nM and 547 nM, respectively.

B12: G57 (peptide)
chain: HSQGTFTSDYAKYLDAARAKEFIAWLVKGR
Regarding B12, the IC50 in test [1] stood at 178 nM; in test [2], 14.7 nM.

B13: G277 (peptide)
chain: HSQGTFTSDYAKYLDARRAKEFIAWLVKGRC(PEG 22 kD)
In the test with Glucagon receptor, B13 gave an IC50 of 65.5 nM.

B14: G71 (peptide)
chain: HSQGTFTSDYAKYLDARRACEFIAWLVKGRG
As to B14, the figures for the IC50 in test [1] and in test [2] were 25.6 nM and 5.8 nM, respectively.

B15: G82 (peptide)
chain: HSQGTFTSDYARYLDARRAKEFIAWLVRGRG
For the molecule B15, the IC50 in test [1] is 33.6 nM; in test [2], 8.1 nM.

B16: G58 (peptide)
chain: HSQGTFTSDYAKYLDAKKAKEFIAWLVKGRG
In the case of B16, the IC50 was determined as 164 nM in test [1] and 6.9 nM in test [2].

B17: G60 (peptide)
chain: HSQGTFTSDYAKYLDAAKAKEFIAWLVKGRG
For B17, the results for the concentration for half-maximal inhibition (IC50) in test [1] and in test [2] were 682 nM and 13.8 nM, respectively.

B18: G74 (peptide)
chain: HSQGTFTSDYAKYLDARRAKEFIAWLVCGRG
In the case of B18, the IC50 in test [1] was 21.7 nM; in test [2], 4.4 nM.

B19: G51 (peptide)
chain: HSQGTFTSDYAKYLDARRAKEFIAWLVKGRG
For the molecule B19, the IC50 is 154 nM in test [1] and 8.2 nM in test [2].

B20: G77 (peptide)
chain: HSQGTFTSDYAKYLDARRAKEFIAWLVKGRC
B20: the IC50 in test [1] was found to be 61.1 nM; in test [2], 8.9 nM.

B21: G88 (peptide)
chain: HSQGTFTSDYAKYLDARRAKEFIAWLVKGRK
Consider B21, for which the IC50 in test [1] was found to be 350 nM; in test [2] it was 109 nM.

B22: G84 (peptide)
chain: HSQGTFTSDYARYLDARRAREFIAWLVKGRG
Take B22: the IC50 in test [1] came out at 11.7 nM; in test [2], 1.4 nM.

B23: G75 (peptide)
chain: HSQGTFTSDYAKYLDARRAKEFIAWLVKCRG
As for B23, the IC50 worked out at 54 nM in test [1] and 7.7 nM in test [2].

B24: G76 (peptide)
chain: HSQGTFTSDYAKYLDARRAKEFIAWLVKGCG
Take B24: the IC50 in test [1] was found to be 59.1 nM; in test [2] it was 10.2 nM.

B25: G55 (peptide)
chain: HSQGTFTSDYARYLDARRAKEFIAWLVKGR
On to B25, for which the results for the IC50 in test [1] and in test [2] were 139 nM and 9.8 nM, respectively.

B26: G56 (peptide)
chain: HSQGTFTSDYAAYLDARRAKEFIAWLVKGR
For B26, the IC50 in test [1] amounted to 125 nM; in test [2], 6.6 nM.

B27: G1 (peptide)
chain: HSQGTFTSDYSKYLDSRRAQDFVQWLVKGR
With B27, the concentration for half-maximal inhibition (IC50) in test [1] turned out to be 6.6 nM; in test [2], 6 nM.

B28: G182 (peptide)
chain: HSQGTFTSDYARYLDARRAREFIKWLVRGRGK
On to B28, for which the IC50 in test [1] worked out at 220 nM; in test [2], 12.6 nM.

B29: G85 (peptide)
chain: HSQGTFTSDYARYLDARRAREFIAWLVRGRGK
As for B29, the IC50 came to 16.1 nM in test [1] and 1.5 nM in test [2].
